Here are results for one molecule from CN109750002A.

Assay [1] has as its target 人BTN3A3 (Butyrophilin subfamily 3 member A3), membrane form on cells (BT474-BTN3A3 overexpressing cells) (human) (UniProt O00478). As to the kind of experiment: adhesion assay by flow cytometry on BT474-BTN3A3 cells, with 5E08 mixed 1:1 (molar) with LSECtin as blocker. In general terms: In flow cytometry, cells or beads pass a laser one at a time.
For assay [2] the target is unchanged. As to the kind of experiment: adhesion assay by flow cytometry on BT474-BTN3A3 cells, with control human IgG; LSECtin-positive ZSG-positive cells / ZSG-positive cells.

Sequence of UniProt O00478 (O00478 30-584): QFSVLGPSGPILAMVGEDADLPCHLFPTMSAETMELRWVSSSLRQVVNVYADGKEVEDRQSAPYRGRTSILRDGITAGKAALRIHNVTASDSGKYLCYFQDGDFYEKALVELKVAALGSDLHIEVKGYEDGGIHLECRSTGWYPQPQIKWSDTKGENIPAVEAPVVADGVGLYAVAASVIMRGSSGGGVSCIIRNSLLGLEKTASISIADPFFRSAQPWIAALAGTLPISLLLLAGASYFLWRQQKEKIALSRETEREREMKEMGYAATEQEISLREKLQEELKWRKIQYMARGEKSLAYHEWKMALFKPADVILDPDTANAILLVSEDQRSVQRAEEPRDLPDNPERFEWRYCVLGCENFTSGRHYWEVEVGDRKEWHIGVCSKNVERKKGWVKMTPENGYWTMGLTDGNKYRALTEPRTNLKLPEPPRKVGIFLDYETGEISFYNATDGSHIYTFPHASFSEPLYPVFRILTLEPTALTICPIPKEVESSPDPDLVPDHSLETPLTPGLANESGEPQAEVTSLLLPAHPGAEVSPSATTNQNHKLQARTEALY

B1: LSECtin蛋白 (Liver Sinusoidal Endothelial Cells lectin) (ligand, UniProt Q6UXB4 53-293, looked up)
chain: LSKASTERAALLDGHDLLRTNASKQTAALGALKEEVGDCHSCCSGTQAQLQTTRAELGEAQAKLMEQESALRELRERVTQGLAEAGRGREDVRTELFRALEAVRLQNNSCEPCPTSWLSFEGSCYFFSVPKTTWAAAQDHCADASAHLVIVGGLDEQGFLTRNTRGRGYWLGLRAVRHLGKVQGYQWVDGVSLSFSHWNQGEPNDAWGRENCVMMLHTGLWNDAPCDSEKDGWICEKRHNC
As for B1, the LSECtin粘附率 in assay [1] was 1.4%; in assay [2], 16.1%.
